According to patent publication US7790673 (dated 2010):
Substitutions are numbered along the chain they refer to. Names may count otherwise.

B1: wild type human cystatin C (other)
chain: SSPGKPPRLVGGPMDASVEEEGVRRALDFAVGEYNKASNDMYHSRALQVVRARKQIVAGVNYFLDVELGRTTCTKTQPNLDNCPFHDQPHLKRKAFCSFQIYAVPWQGTMTLSKSTCQDA
B2: urinary cystatin C (Calbiochem Biosciences) (other)
chain: B1 chain
B3: variant human cystatin C (L68Q, HCHWA-I variant) (other)
chain: B1 chain with L68Q

Key:
Aβ1-42 synthetic peptide = Aβ1-42 synthetic peptide (UniProt P05067 672-713); assay: ELISA
Aβ1-40 synthetic peptide = Aβ1-40 synthetic peptide (UniProt P05067 672-711); assay: ELISA
Sequence of Aβ1-40 synthetic peptide (P05067 672-711): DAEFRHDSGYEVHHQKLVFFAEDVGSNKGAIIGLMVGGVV

Sequence of Aβ1-42 synthetic peptide (P05067 672-713): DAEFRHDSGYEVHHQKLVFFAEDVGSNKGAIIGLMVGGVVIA

| Binder | Kd (Aβ1-42 synthetic peptide) | Kd (Aβ1-40 synthetic peptide) |
| --- | --- | --- |
| B1 | 10.6 nM | 16.4 nM |
| B2 | 6.6 nM | 9 nM |
| B3 | 5.9 nM | 9.2 nM |
